In patent US20080176263:

What was measured:
[1] = tested on: TNO211 peptide (DABCYL-GABA-Pro-Gln-Gly-Leu-Glu(EDANS)-Ala-Lys-NH2)
[2] = tested on: T1, Peptide #15 (Biotin-aAbu-Pro-Gln-Gly-Leu-Lys(5FAM)-Ala-Lys-NH2)
T1 sequence: PQGLKAK

[3] = tested on: Anaspec, Inc.'s FRET peptide XV (QXL520-y-Abu-Pro-Gln-Gly-Leu-Dab(5-FAM)-Ala-Lys-NH)

Chain of MMP-9 (chain, as listed by the source): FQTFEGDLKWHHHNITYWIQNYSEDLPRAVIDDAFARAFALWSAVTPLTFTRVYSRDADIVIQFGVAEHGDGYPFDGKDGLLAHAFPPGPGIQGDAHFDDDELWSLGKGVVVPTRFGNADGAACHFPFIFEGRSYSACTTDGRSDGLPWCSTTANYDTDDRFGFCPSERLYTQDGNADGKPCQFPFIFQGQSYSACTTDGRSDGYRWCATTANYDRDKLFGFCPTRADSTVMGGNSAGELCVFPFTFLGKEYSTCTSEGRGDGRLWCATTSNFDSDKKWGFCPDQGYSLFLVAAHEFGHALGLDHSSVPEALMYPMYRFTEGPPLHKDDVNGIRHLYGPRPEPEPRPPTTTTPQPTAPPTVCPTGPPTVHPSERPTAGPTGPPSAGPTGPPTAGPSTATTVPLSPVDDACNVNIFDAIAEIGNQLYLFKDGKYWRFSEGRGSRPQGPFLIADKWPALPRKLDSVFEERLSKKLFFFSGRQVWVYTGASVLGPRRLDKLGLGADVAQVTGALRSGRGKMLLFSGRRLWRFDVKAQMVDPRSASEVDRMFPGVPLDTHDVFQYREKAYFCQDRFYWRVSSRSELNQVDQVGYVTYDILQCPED
Chain of Recombinant active pure MMP-9 from Calbiochem (Cat# PF024; 83 kDa form) (chain, as listed by the source): as above

Substance: clostridial collagenase
- protease activity (fluorescence from cleavage of substrate TNO211), relative to pronase [1]: 2±1%

Substance: pronase
- fluorescence left after streptavidin agarose removal of uncleaved biotinylated peptide [2]: there was enough of a difference between the negative control and the other samples to stop at this point
- cleavage of the dye-labelled immobilized substrate (color generation) (RH substrate): none of the enzyme preparations were successful in cleaving the RH substrate
- visible color from cleavage of the dye-labelled immobilized substrate (Substrate AA): AA substrate reacted with pronase and proteinase K did produce a visible color within 2.5 h at 37 °C Pronase generated the most noticeable color change
- time to completion of the cleavage reaction at 1 ug/ml protease [1]: the pronase reaction reached completion within 13 minutes
- visual detection limit of protease by fluorescence of cleaved substrate [1]: 125 ng pronase was detected within 10 minutes

Substance: trypsin
- cleavage of the dye-labelled immobilized substrate (color generation) (RH substrate): none of the enzyme preparations were successful in cleaving the RH substrate

Substance: elastase
- cleavage of the dye-labelled immobilized substrate (color generation) (RH substrate): none of the enzyme preparations were successful in cleaving the RH substrate

Substance: Recombinant active pure MMP-9 from Calbiochem (Cat# PF024; 83 kDa form)
- time to a visible fluorescent signal from cleavage of the FRET peptide [3]: capable of generating a signal within 10 minutes for pure MMP-9 activity
- visually detectable fluorescent signal in MMP-9 spiked fetal bovine serum [3]: the spiked FBS generated as slightly detectable signal by 10 min with the 5-FAM-based peptide and an easily detectable signal by 30 min

Substance: dispase
- cleavage of the dye-labelled immobilized substrate (color generation) (RH substrate): none of the enzyme preparations were successful in cleaving the RH substrate

Substance: MMP-9
- protease activity (fluorescence from cleavage of substrate TNO211), relative to pronase [1]: 28±3%
- substrate specificity in the fluorogenic cleavage assay [1]: The substrate exhibited greater specificity for MMP-9 within the initial 30 minutes of the assay
